As a reminder, the EC50 is the midpoint of the concentration-response curve. Low values mean higher potency in that assay, high ones lower potency in that assay.

The target in assay [1] is T1, HA-tagged human TIGIT with mutation D51A, on CHO-K1 cells (human, UniProt Q495A1 22-244).
T1 construct: Built as for m17
T1 sequence: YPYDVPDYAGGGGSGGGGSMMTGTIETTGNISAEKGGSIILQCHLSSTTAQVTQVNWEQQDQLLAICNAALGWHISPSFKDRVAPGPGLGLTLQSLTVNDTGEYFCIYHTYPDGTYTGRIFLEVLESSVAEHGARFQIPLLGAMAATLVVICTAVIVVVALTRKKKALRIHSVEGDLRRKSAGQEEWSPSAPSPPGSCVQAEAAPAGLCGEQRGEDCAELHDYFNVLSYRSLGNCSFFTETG
The assay can be described thus: flow cytometry on CHO-K1 cells transiently expressing HA-tagged TIGIT mutant. As for the experimental part:
(§1) For flow cytometry analysis of the anti-hTIGIT antibody binding epitope, HA-tagged human TIGIT proteins with or without single amino acid mutation were transiently transfected into CHO-K1 cells. After 24 hr, transfected cells were suspended in HBSS buffer (Thermo Fisher Scientific, Cat#14175095), and incubated with HuTIG1-IgG1.AA antibody at varying concentrations in 50 μL volume. After 1 hr incubation at 4° C., cells were washed and a second incubation with 50 μL Alexa488 conjugated anti-human IgG(H+L) secondary antibody (Thermo Fisher Scientific, Cat#A-11013) was performed to detect cells bound by antibody. Cells were incubated with an anti-HA antibody (Sigma, Cat# H7411) as a positive control, and non-transfected CHO-K1 cells were used as a negative control. The cells were analyzed on an Attune NxT Cytometer (Thermo Fisher Scientific) and the data were processed using FlowJo software. For each mutant, the saturating antibody binding MFI (mean fluorescence intensity) were normalized to 100% POC (percent of control), and no primary antibody binding control MFI were normalized to 0% POC. Data were then fit to a four parameter non-linear sigmoidal curve using GraphPad Prism 7 curve fitting using following formula: Y=Bottom+(Top−Bottom)/(1+10^{((Log EC}^₅₀^{-X)*HillSlope)}).
(§2) All of these residues co-locate to one discrete region on the front ([…] structure of the TIGIT IgV extracellular domain (FIG. 28).
Background: In flow cytometry, cells or beads pass a laser one at a time.

The target in assay [2] is T2, HA-tagged human TIGIT with mutation H90A, on CHO-K1 cells (human, UniProt Q495A1 22-244).
T2 construct: Built as for m17
T2 sequence: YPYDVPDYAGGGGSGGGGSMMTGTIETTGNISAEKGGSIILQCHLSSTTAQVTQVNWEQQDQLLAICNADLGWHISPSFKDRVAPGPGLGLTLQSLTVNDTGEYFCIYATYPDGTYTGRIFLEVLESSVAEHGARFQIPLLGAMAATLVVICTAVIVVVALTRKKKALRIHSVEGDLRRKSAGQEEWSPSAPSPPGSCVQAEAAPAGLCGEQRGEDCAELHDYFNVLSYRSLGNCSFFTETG
Described as above. How it is done:
as §1, §2

Assay [3] deals with T3, HA-tagged human TIGIT with mutation N49A, on CHO-K1 cells (human, UniProt Q495A1 22-244).
T3 sequence: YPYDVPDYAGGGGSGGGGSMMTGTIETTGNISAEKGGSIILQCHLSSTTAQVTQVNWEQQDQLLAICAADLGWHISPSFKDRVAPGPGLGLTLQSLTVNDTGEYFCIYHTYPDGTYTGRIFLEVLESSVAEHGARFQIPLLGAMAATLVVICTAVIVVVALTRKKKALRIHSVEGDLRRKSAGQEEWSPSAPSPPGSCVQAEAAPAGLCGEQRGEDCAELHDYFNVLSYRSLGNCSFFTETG
As to the kind of experiment: flow cytometry on CHO-K1 cells transiently expressing HA-tagged TIGIT mutant; N49A mutant. As for the experimental part:
as §1, with “EC}^₅₀^{-X)*HillSlope)}). […]” for “EC}^₅₀^{-X)*HillSlope)}).”

Assay [4] has as its target T4, human TIGIT on cells (Jurkat-TIGIT cells; human T cells, NK cells and other blood cells) (human, UniProt Q495A1 22-244).
T4 sequence: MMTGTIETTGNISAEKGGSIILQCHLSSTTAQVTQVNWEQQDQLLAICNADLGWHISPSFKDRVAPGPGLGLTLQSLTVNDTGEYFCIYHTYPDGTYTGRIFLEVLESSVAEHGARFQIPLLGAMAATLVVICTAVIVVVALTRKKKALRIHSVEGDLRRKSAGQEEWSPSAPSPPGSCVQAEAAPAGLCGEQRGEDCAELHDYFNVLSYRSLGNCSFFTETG
The assay can be described thus: cell-based or functional assay.

For assay [5], the target named is T5, extracellular region of human TIGIT fused to FLAG and GPI (hTIGIT-GPI), on the surface of NS0 cells (human).
T5 construct: The GPI signal is processed when the anchor is attached; also called NS0-hTIGIT cells
T5 chain: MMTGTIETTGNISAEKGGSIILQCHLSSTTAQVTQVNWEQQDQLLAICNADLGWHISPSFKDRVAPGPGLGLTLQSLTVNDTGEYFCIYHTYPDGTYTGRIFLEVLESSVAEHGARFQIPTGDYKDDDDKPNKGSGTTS
As to the kind of experiment: flow cytometry on NS0-hTIGIT cells. How it is done:
Binding of HuTIG1-IgG1.AA to human TIGIT was also examined by flow cytometry. NS0-hTIGIT cells (8×10⁵ cells) were incubated in 160 μl of FACS Buffer (PBS containing 0.5% bovine serum albumin and 0.05% sodium azide) in the presence (or absence) of various concentrations of HuTIG1-IgG1.AA, starting at 10 μg/ml and serial 2-fold dilutions, for 20 min at 4° C. After washing with FACS Buffer, HuTIG1-IgG1.AA binding on NS0-hTIGIT cells were detected with PE-labeled goat anti-human IgG antibody in FACS Buffer. After incubation for 20 min and washing with FACS Buffer, the cells were subjected to flow cytometry using a FACScan flow cytometer (BD Biosciences, San Jose, Calif.) to obtain the mean channel fluorescence (MCF) at each antibody concentration. […] The EC₅₀ value was 60 ng/ml.

In assay [6] the target is T6, HA-tagged human TIGIT, wild type, transiently expressed on CHO-K1 cells (human, UniProt Q495A1 22-244).
T6 sequence: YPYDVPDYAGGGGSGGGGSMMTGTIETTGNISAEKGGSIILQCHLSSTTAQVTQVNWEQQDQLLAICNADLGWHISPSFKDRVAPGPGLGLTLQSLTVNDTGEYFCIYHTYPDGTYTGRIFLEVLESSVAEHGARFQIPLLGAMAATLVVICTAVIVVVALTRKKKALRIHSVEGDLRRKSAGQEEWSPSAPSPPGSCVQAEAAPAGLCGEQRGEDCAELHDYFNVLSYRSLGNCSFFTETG
As to the kind of experiment: flow cytometry on CHO-K1 cells transiently expressing HA-tagged human TIGIT; wild type TIGIT. How it is done: as §1, with “EC}^₅₀^{-X)*HillSlope)}). […]” for “EC}^₅₀^{-X)*HillSlope)}).”

Where only a bound is given, the exact number is not on record here.

B1: HuTIG1-IgG1.AA (humanized IgG1/kappa form of TIG1, L234A/L235A) (antibody)
heavy: not shown
light: DIQMTQSPSSLSASVGDRVTITCRASKSISKYLAWYQQKPGKAPKLLIYSGSTLQSGVPSRFSGSGSGTDFTLTISSLQPEDFATYYCQQHNEYPWTFGGGTKVEIKRTVAAPSVFIFPPSDEQLKSGTASVVCLLNNFYPREAKVQWKVDNALQSGNSQESVTEQDSKDSTYSLSSTLTLSKADYEKHKVYACEVTHQGLSSPVTKSFNRGEC
notes: Mature full chains; also called humanized TIG1
As for B1, the “fold decrease in binding affinity against wild type human TIGIT” value in assay [1] and in assay [2] was more than 10 fold throughout. Also, the concentration for a half-maximal effect (EC50) is 17.7 nM in assay [3], 0.06 µg/mL in assay [5] and 1.28 nM in assay [6]. Further, in assay [4], the “increase of K562 target cell killing by purified NK cells, 10 µg/ml antibody, relative to 'No Antibody' or Rituxan” value turned out to be 28%.

These data come from patent publication US20170281764A1 (JN BIOSCIENCES, published 2017).
